The values below come from paper PMC9499943 (Nature Communications, 2022).

Holding throughout (assay): BLI
What all share (settings): both partners purified

For test [1], the target named is His-tagged RBD (RBD-His) protein of SARS-CoV-2 (SARS-CoV-2, wild type (Wuhan-Hu-1 …, UniProt P0DTC2)).
Test [2] has the same target. This is another data set of the same source.
The target in test [3] is Fc-tagged wild-type RBD (RBD-Fc) (SARS-CoV-2, UniProt P0DTC2).

B1: CoV2-14 (antibody, V domains shown)
VH: EVQLQQSGPGLVKPSQTLSLTCAISGDSVSSNSAAWNWIRQSPSRGLEWLGRTYYRSKWYNDYAVSVKSRITINPDTSKNQFSLQLNSVTPEDTAVYYCAREEQQLVHDYYYYGMDVWGQGTMVTVSS
VL: QAVVTQPASVSGSPGQSITISCTGTSSDIGAYNYISWYQQHPGKAPKLIIYEVSNRPSGISYRFSGSKSGNTASLTISGLQAEDEANYYCSSYAGSISFGGGTKVTVL
The term Kd denotes a measure of binding affinity in units of concentration. Low readings indicate tighter binding, high ones weaker binding. By koff is commonly meant a measure of how fast the partners let go of each other. Read a high koff as fast dissociation. The term kon denotes the rate constant with which the complex forms. The low end stands for slow association, the high end for fast association. In the case of B1, in test [1], the Kd came to 1.18 nM, the koff was found to be 0.000895 s⁻¹ and the kon stood at 761000 M⁻¹ s⁻¹.

B2: CoV2-14 (antibody, V domains shown)
VH: EVQLQQSGPGLVKPSQTLSLTCAISGDSVSSNSAAWNWIRQSPSRGLEWLGRTYYRSKWYNDYAVSVKSRITINPDTSKNQFSLQLNSVTPEDTAVYYCAREEQQLVHDYYYYGMDVWGQGTMVTVSS
VL: QAVVTQPASVSGSPGQSITISCTGTSSDIGAYNYISWYQQHPGKAPKLIIYEVSNRPSGISYRFSGSKSGNTASLTISGLQAEDEANYYCSSYAGSISFGGGTKVTVL
What is called IC50 is the midpoint of a concentration-inhibition curve. A lower IC50 goes with inhibition by little substance. As for B2, the other in test [2] is 2 fold. Moreover, it took 10.6 nM to reach half-maximal inhibition in test [3] (IC50).

B3: CoV2-06 (antibody, V domains shown)
VH: QVELQESGPGLVKPSGTLSLTCAVSGGSISSNNWWTWVRQPPGKGLEWIGEIHHSGGTNYNPSLKSRVTMSVDKSKNQFSLNLYSVTAADTAVYYCTRDRAGGTYSGFDFWGQGTLVTVSS
VL: QAVVTQPASVSGSPGQSITISCTGTSSDVGGYNYVSWYQQHPGKAPKLMIYDVSNRPSGVSNRFSGSKSGNTASLTISGLQAEDEADYYCSSYTSSSTVVFGGGTKVTVL
In test [1], B3 returned a Kd of 4.14 nM, a koff of 0.000695 s⁻¹ and a kon of 168000 M⁻¹ s⁻¹.

B4: CoV2-06 (antibody, V domains shown)
VH: QVELQESGPGLVKPSGTLSLTCAVSGGSISSNNWWTWVRQPPGKGLEWIGEIHHSGGTNYNPSLKSRVTMSVDKSKNQFSLNLYSVTAADTAVYYCTRDRAGGTYSGFDFWGQGTLVTVSS
VL: QAVVTQPASVSGSPGQSITISCTGTSSDVGGYNYVSWYQQHPGKAPKLMIYDVSNRPSGVSNRFSGSKSGNTASLTISGLQAEDEADYYCSSYTSSSTVVFGGGTKVTVL
Take B4: the other in test [2] stood at 46 fold. Moreover, the IC50 in test [3] stood at 39.8 nM.
